Assay results as given in PMC9757077, “The B. subtilis Rok protein is an atypical H-NS-like protein irresponsive to physico-chemical cues”.
Blank lines part the entries; values can stand above or below the molecule they belong to.

Assays:
Rok [1] = target: T1, Rok (Bacillus subtilis 168, UniProt O34857 1-191); assay: TPM; conditions: Hill n=6.5 ± 0.4; 50 mM KCl; MST: 10 mM Tris-HCl pH 8, 150 mM KCl, 5% glycerol, 0.05% Tween20, 0.08 mg/ml acetylated BSA, RT, 40 nM DNA; TPM: 50 mM KCl; bridging: 50 mM KCl …
T1 sequence: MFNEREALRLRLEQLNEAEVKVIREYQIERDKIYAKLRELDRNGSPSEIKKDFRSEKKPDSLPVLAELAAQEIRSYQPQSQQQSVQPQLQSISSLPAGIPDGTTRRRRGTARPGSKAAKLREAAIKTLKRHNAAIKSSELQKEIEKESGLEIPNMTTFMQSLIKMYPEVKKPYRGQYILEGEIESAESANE

[2] = tested on: Rok Δ75-96 (Bacillus subtilis 168); assay: TPM; conditions: Hill n=5.7 ± 0.9; 50 mM KCl; MST: 10 mM Tris-HCl pH 8, 150 mM KCl, 5% glycerol, 0.05% Tween20, 0.08 mg/ml acetylated BSA, RT, 40 nM DNA; TPM: 50 mM KCl; bridging: 50 mM KCl …
[3] = target: Rok with a C-terminal His-tag (Rok-6xHis) (B. subtilis 168) (UniProt O34857)
Rok [4] = target: T1, Rok; assay: MST; 10 mM MgCl2; MST: 10 mM Tris-HCl pH 8, 150 mM KCl, 5% glycerol, 0.05% Tween20, 0.08 mg/ml acetylated BSA, RT, 40 nM DNA; TPM: 50 mM KCl; bridging: 50 mM KCl, 25 C; conditions: protein: recombinant; chain copies: 2; label: 5'-Cy5 top strand; blunt
Rok [5] = target: T1, Rok; assay: MST; no MgCl2; McGhee-von Hippel n=30 bp; MST: 10 mM Tris-HCl pH 8, 150 mM KCl, 5% glycerol, 0.05% Tween20, 0.08 mg/ml acetylated BSA, RT, 40 nM DNA; TPM: 50 mM KCl; bridging: 50 mM KCl, 25 C; conditions: protein: recombinant; chain copies: 2; label: 5'-Cy5 top strand; blunt
Rok [6] = target: T1, Rok; assay: MST; up to 35 mM MgCl2; MST: 10 mM Tris-HCl pH 8, 150 mM KCl, 5% glycerol, 0.05% Tween20, 0.08 mg/ml acetylated BSA, RT, 40 nM DNA; TPM: 50 mM KCl; bridging: 50 mM KCl, 25 C; conditions: protein: recombinant; chain copies: 2; label: 5'-Cy5 top strand; blunt
Rok [7] = target: T1, Rok; assay: bridging pull-down; 0.27 uM Rok, bait N1; minimal bridged length; MST: 10 mM Tris-HCl pH 8, 150 mM KCl, 5% glycerol, 0.05% Tween20, 0.08 mg/ml acetylated BSA, RT, 40 nM DNA; TPM: 50 mM KCl; bridging: 50 mM KCl, 25 C; conditions: protein: recombinant; chain copies: 2; label: 32P; blunt

Molecule: 685 bp AT-rich (32% GC) DNA
- K half (Rok [1]): 6.1 nM
- K half [2]: 8.8 nM

- DNA recovery (%) in the DNA bridging assay with different Rok:sRok ratios (total protein 0.5 uM, 50 mM KCl + 1 mM MgCl2, 25°C); value at 20% sRok; Rok here is the untagged protein [3]: 40%
Molecule: small Rok (sRok) (natural protein)

B1: MST aspecific 78 bp (dsDNA)
DNA 1: CGGCGCAAATTCGTGACCAGTTGCATCAGCTGCGTGAGCTGTTTATCGCAGCATCGTAACAGGATAGTGAAGAAGACT
DNA 2: AGTCTTCTTCACTATCCTGTTACGATGCTGCGATAAACAGCTCACGCAGCTGATGCAACTGGTCACGAATTTGCGCCG
- Kd (Rok [4]): 34.6 ± 8 µM
- Kd (Rok [5]): 79.4 ± 20 µM

B2: MST specific 78 bp (TACTA) (dsDNA)
DNA 1: CGGCGCAAATTCGTGACCAGTTGCATCAGCTACTAGAGCTGTTTATCGCAGCATCGTAACAGGATAGTGAAGAAGACT
DNA 2: AGTCTTCTTCACTATCCTGTTACGATGCTGCGATAAACAGCTCTAGTAGCTGATGCAACTGGTCACGAATTTGCGCCG
- Kd (Rok [6]): ~100 µM

B3: 100 bp prey (dsDNA)
DNA 1: GATATATGGACTCTTAGTGGCAAATATATAATGTATAAGTTCTGGAGTAGTATGGTAATAACTATTTTATTTTCGATAGCTTGAATGTTTATTTTCCCAG
DNA 2: CTGGGAAAATAAACATTCAAGCTATCGAAAATAAAATAGTTATTACCATACTACTCCAGAACTTATACATTATATATTTGCCACTAAGAGTCCATATATC
- binding result (Rok [7]): binds
